Values of other authors in US20130145495A1, “ENHANCED CARBON FIXATION IN PHOTOSYNTHETIC HOSTS” (DONALD DANFORTH PLANT SCIENCE CENTER, priority 2010, published 2013).

B1: hCAIV: human α-carbonic anhydrase isoenzyme IV, membrane (protein, UniProt P22748 19-284, looked up)
Carbonic anhydrase 4: AESHWCYEVQAESSNYPCLVPVKWGGNCQKDRQSPINIVTTKAKVDKKLGRFFFSGYDKKQTWTVQNNGHSVMMLLENKASISGGGLPAPYQAKQLHLHWSDLPYKGSEHSLDGEHFAMEMHIVHEKEKGTSRNVKEAQDPEDEIAVLAFLVEAGTQVNEGFQPLVEALSNIPKPEMSTTMAESSLLDLLPKEEKLRHYFRYLGSLTTPTCDEKVVWTVFREPIQLHREQILAFSQKLYYDKEQTVSMKDNVRPLQQLGQRTVIKS
B2: hCAVA: human α-carbonic anhydrase isoenzyme VA, mitochondria (protein, UniProt P35218 39-305, looked up)
Carbonic anhydrase 5A, …: CAWQTSNNTLHPLWTVPVSVPGGTRQSPINIQWRDSVYDPQLKPLRVSYEAASCLYIWNTGYLFQVEFDDATEASGISGGPLENHYRLKQFHFHWGAVNEGGSEHTVDGHAYPAELHLVHWNSVKYQNYKEAVVGENGLAVIGVFLKLGAHHQTLQRLVDILPEIKHKDARAAMRPFDPSTLLPTCWDYWTYAGSLTTPPLTESVTWIIQKEPVEVAPSQLSAFRTLLFSALGEEEKMMVNNYRPLQPLMNRKVWASFQATNEGTRS
B3: hCAVB: human α-carbonic anhydrase isoenzyme VB, mitochondria (protein, UniProt Q9Y2D0 34-317, looked up)
Carbonic anhydrase 5B, …: CSLYTCTYKTRNRALHPLWESVDLVPGGDRQSPINIRWRDSVYDPGLKPLTISYDPATCLHVWNNGYSFLVEFEDSTDKSVIKGGPLEHNYRLKQFHFHWGAIDAWGSEHTVDSKCFPAELHLVHWNAVRFENFEDAALEENGLAVIGVFLKLGKHHKELQKLVDTLPSIKHKDALVEFGSFDPSCLMPTCPDYWTYSGSLTTPPLSESVTWIIKKQPVEVDHDQLEQFRTLLFTSEGEKEKRMVDNFRPLQPLMNRTVRSSFRHDYVLNVQAKPKPATSQATP
B4: hCAVI: human α-carbonic anhydrase isoenzyme VI, secreted (protein, UniProt P23280 18-308, looked up)
Carbonic anhydrase 6: QHVSDWTYSEGALDEAHWPQHYPACGGQRQSPINLQRTKVRYNPSLKGLNMTGYETQAGEFPMVNNGHTVQISLPSTMRMTVADGTVYIAQQMHFHWGGASSEISGSEHTVDGIRHVIEIHIVHYNSKYKSYDIAQDAPDGLAVLAAFVEVKNYPENTYYSNFISHLANIKYPGQRTTLTGLDVQDMLPRNLQHYYTYHGSLTTPPCTENVHWFVLADFVKLSRTQVWKLENSLLDHRNKTIHNDYRRTQPLNHRVVESNFPNQEYTLGSEFQFYLHKIEEILDYLRRALN
B5: hCAVII: human α-carbonic anhydrase isoenzyme VII, cytosol (protein, UniProt P43166 1-264, looked up)
Carbonic anhydrase 7: MTGHHGWGYGQDDGPSHWHKLYPIAQGDRQSPINIISSQAVYSPSLQPLELSYEACMSLSITNNGHSVQVDFNDSDDRTVVTGGPLEGPYRLKQFHFHWGKKHDVGSEHTVDGKSFPSELHLVHWNAKKYSTFGEAASAPDGLAVVGVFLETGDEHPSMNRLTDALYMVRFKGTKAQFSCFNPKCLLPASRHYWTYPGSLTTPPLSESVTWIVLREPICISERQMGKFRSLLFTSEDDERIHMVNNFRPPQPLKGRVVKASFRA
B6: hCAXII: human α-carbonic anhydrase isoenzyme XII, transmembrane (protein, UniProt O43570 25-354, looked up)
Carbonic anhydrase 12: APVNGSKWTYFGPDGENSWSKKYPSCGGLLQSPIDLHSDILQYDASLTPLEFQGYNLSANKQFLLTNNGHSVKLNLPSDMHIQGLQSRYSATQLHLHWGNPNDPHGSEHTVSGQHFAAELHIVHYNSDLYPDASTASNKSEGLAVLAVLIEMGSFNPSYDKIFSHLQHVKYKGQEAFVPGFNIEELLPERTAEYYRYRGSLTTPPCNPTVLWTVFRNPVQISQEQLLALETALYCTHMDDPSPREMINNFRQVQKFDERLVYTSFSQVQVCTAAGLSLGIILSLALAGILGICIVVVVSIWLFRRKSIKKGDNKGVIYKPATKMETEAHA
B7: hCAXIV: human α-carbonic anhydrase isoenzyme XIV, transmembrane (protein, UniProt Q9ULX7 16-337, looked up)
Carbonic anhydrase 14: ADGGQHWTYEGPHGQDHWPASYPECGNNAQSPIDIQTDSVTFDPDLPALQPHGYDQPGTEPLDLHNNGHTVQLSLPSTLYLGGLPRKYVAAQLHLHWGQKGSPGGSEHQINSEATFAELHIVHYDSDSYDSLSEAAERPQGLAVLGILIEVGETKNIAYEHILSHLHEVRHKDQKTSVPPFNLRELLPKQLGQYFRYNGSLTTPPCYQSVLWTVFYRRSQISMEQLEKLQGTLFSTEEEPSKLLVQNYRALQPLNQRMVFASFIQAGSSYTTGEMLSLGVGILVGCLCLLLAVYFIARKIRKKRLENRKSVVFTSAQATTEA
B8: hCAXV: α-carbonic anhydrase isoenzyme XV, membrane (protein, UniProt Q99N23 19-324, looked up)
Carbonic anhydrase 15: VDSSGTWCYDSQDPKCGPAHWKELAPACGGPTQSPINIDLRLVQRDYTLKPFIFQGYDSAPQDPWVLENDGHTVLLRVNSCQQNCPAIRGAGLPSPEYRLLQLHFHWGSPGHQGSEHSLDEKHGSMEMHMVHMNTKYQSMEDARSQPDGFAILAVLLVEEDRDNTNFSAIVSGLKNLSSPGVAVNLTSTFALASLLPSALRLLRYYRYSGSLTTPGCEPAVLWTVFENTVPIGHAQVVQFQAVLQTGPPGLHPRPLTSNFRPQQPLGGRRISASPEASVRSSVSTLPCLHLALVGLGVGLRLWQGP
B9: hCAIII: human α-carbonic anhydrase isoenzyme III, cytosol (protein, UniProt P07451 2-260, looked up)
Carbonic anhydrase 3: AKEWGYASHNGPDHWHELFPNAKGENQSPVELHTKDIRHDPSLQPWSVSYDGGSAKTILNNGKTCRVVFDDTYDRSMLRGGPLPGPYRLRQFHLHWGSSDDHGSEHTVDGVKYAAELHLVHWNPKYNTFKEALKQRDGIAVIGIFLKIGHENGEFQIFLDALDKIKTKGKEAPFTKFDPSCLFPACRDYWTYQGSFTTPPCEECIVWLLLKEPMTVSSDQMAKLRSLLSSAENEPPVPLVSNWRPPQPINNRVVRASFK

Tested on: carbonic anhydrase

In order of falling Kcat:
1. B1  1e+06 s⁻¹
2. B3  950000 s⁻¹
3. B5  950000 s⁻¹
4. B8  470000 s⁻¹
5. B6  420000 s⁻¹
6. B4  340000 s⁻¹
7. B7  310000 s⁻¹
8. B2  290000 s⁻¹
9. hCAI: human α-carbonic anhydrase isoenzyme I, cytosol  200000 s⁻¹
10. hCAXIII: human α-carbonic anhydrase isoenzyme XIII, cytosol  150000 s⁻¹
11. B9  10000 s⁻¹
